Target: HLA-A*02:01 (Homo sapiens, UniProt P04439, D140Y/D185E/D98H/E176V/E277Q/G131W/G231S/I119V/I121R/I166T/I218V/L300P/L318F/N151K/N90K/P208A/P217A/Q86G/Q94H/R138H/R169H/T345S)
Assay: MHC binding assay (UV-ligand exchange, beta2m ELISA)
Details: binding to HLA-A*02:01, UV-ligand exchange
Source text: Candidate peptides for T cell based therapies according to the present invention were further tested for their MHC binding capacity (affinity). The individual peptide-MHC complexes were produced by UV-ligand exchange, where a UV-sensitive peptide is cleaved upon UV-irradiation, and exchanged with the peptide of interest as analyzed. Only peptide candidates that can effectively bind and stabilize the peptide-receptive MHC molecules prevent dissociation of the MHC complexes. To determine the yield of the exchange reaction, an ELISA was performed based on the detection of the light chain (β2m) of stabilized MHC complexes. The assay was performed as generally described in Rodenko et al. (Rodenko et al., 2006).
96 well MAXISorp plates (NUNC) were coated over night with 2 ug/ml streptavidin in PBS at room temperature, washed 4× and blocked for 1 h at 37° C. in 2% BSA containing blocking buffer. Refolded HLA-A*02:01/MLA-001 monomers served as standards, covering the range of 15-500 ng/ml. Peptide-MHC monomers of the UV-exchange reaction were diluted 100 fold in blocking buffer. Samples were incubated for 1 h at 37° C., washed four times, incubated with 2 ug/ml HRP conjugated anti-β2m for 1 h at 37° C., washed again and detected with TMB solution that is stopped with […]. Absorption was measured at 450 nm. Candidate peptides that show a high exchange yield (preferably higher than 50%, most preferred higher than 75%) are generally preferred for a generation and production of antibodies or fragments thereof, and/or T cell receptors or fragments thereof, as they show sufficient avidity to the MHC molecules and prevent dissociation of the MHC complexes.

| Substance | Peptide exchange (MHC class I binding score, peptide exchange yield) |
| --- | --- |
| 188 (GLEDEMYEV; listed as Homo sapiens) [compound 188] | “++” (≥20% = ++) |
| 223 (FLQDIPDGLFL; listed as Homo sapiens) [compound 223] | “++” (≥20% = ++) |
| 202 (ALAAGGYDV; listed as Homo sapiens) [compound 202] | “++” (≥20% = ++) |
| 108 (YLAPENGYLM; listed as Homo sapiens) [compound 108] | “+++” (≥50 = +++) |
| 122 (AISEAQESV; listed as Homo sapiens) [compound 122] | “++” (≥20% = ++) |
| 119 (ELCDIILRV; listed as Homo sapiens) [compound 119] | “+++” (≥50 = +++) |
| 100 (RLIRTIAAI; listed as Homo sapiens) [compound 100] | “+++” (≥50 = +++) |
| 88 (GLFDNRSGLPEA; listed as Homo sapiens) [compound 88] | “+++” (≥50 = +++) |
| 213 (YINEDEYEV; listed as Homo sapiens) [compound 213] | “++” (≥20% = ++) |
| 65 (NLTDVSPDL; listed as Homo sapiens) [compound 65] | “+++” (≥50 = +++) |
| 191 (GLSDISAQV; listed as Homo sapiens) [compound 191] | “+++” (≥50 = +++) |
| 48 (KILDEDLYI; listed as Homo sapiens) [compound 48] | “+++” (≥50 = +++) |
| 179 (FVDTNLYFL; listed as Homo sapiens) [compound 179] | “+++” (≥50 = +++) |
| 90 (HLDEVFLEL; listed as Homo sapiens) [compound 90] | “+++” (≥50 = +++) |
| 157 (KVLEFLAKV; listed as Homo sapiens) [compound 157] | “+++” (≥50 = +++) |
| 159 (LLLSDSGFYL; listed as Homo sapiens) [compound 159] | “+++” (≥50 = +++) |
| 99 (QLYDGATALFL; listed as Homo sapiens) [compound 99] | “++” (≥20% = ++) |
| 162 (RLADLKVSI; listed as Homo sapiens) [compound 162] | “++++” (≥75% = ++++) |

| Substance | Peptide exchange (MHC class I binding score, peptide exchange yield) |
| --- | --- |
| 105 (VLTPVILQV; listed as Homo sapiens) [compound 105] | “+++” (≥50 = +++) |
| 204 (RLCDIVVNV; listed as Homo sapiens) [compound 204] | “++” (≥20% = ++) |
| 49 (TILGDPQILL; listed as Homo sapiens) [compound 49] | “++++” (≥75% = ++++) |
| 134 (ALGRLGILSV; listed as Homo sapiens) [compound 134] | “+++” (≥50 = +++) |
| 180 (GILQLVESV; listed as Homo sapiens) [compound 180] | “+++” (≥50 = +++) |
| 103 (SLQDHLEKV; listed as Homo sapiens) [compound 103] | “+++” (≥50 = +++) |
| 187 (FLNSFVFKM; listed as Homo sapiens) [compound 187] | “++” (≥20% = ++) |
| 84 (FLQELQLEHA; listed as Homo sapiens) [compound 84] | “+++” (≥50 = +++) |
| 123 (ALLSAFVQL; listed as Homo sapiens) [compound 123] | “+++” (≥50 = +++) |
| 217 (AQFGAVLEV; listed as Homo sapiens) [compound 217] | “+++” (≥50 = +++) |
| 107 (VQAVSIPEV; listed as Homo sapiens) [compound 107] | “+++” (≥50 = +++) |
| 203 (ILDTIFHKV; listed as Homo sapiens) [compound 203] | “+++” (≥50 = +++) |
| 121 (YLTGYNFTL; listed as Homo sapiens) [compound 121] | “+++” (≥50 = +++) |
| 181 (LLFDQNDKV; listed as Homo sapiens) [compound 181] | “+++” (≥50 = +++) |
| 173 (VILDSVASV; listed as Homo sapiens) [compound 173] | “++++” (≥75% = ++++) |
| 182 (LLPPPPPVA; listed as Homo sapiens) [compound 182] | “++++” (≥75% = ++++) |
| 216 (KVVSNLPAI; listed as Homo sapiens) [compound 216] | “++” (≥20% = ++) |
| 194 (SLAPFDREPFTL; listed as Homo sapiens) [compound 194] | “++” (≥20% = ++) |

Other lines, results leading:

| Peptide exchange (MHC class I binding score, peptide exchange yield) | Substance |
| --- | --- |
| “+++” (≥50 = +++) | 286 (HLTEDTPKV; listed as Homo sapiens) [compound 286] |
| “+++” (≥50 = +++) | 292 (KLINSQISL; listed as Homo sapiens) [compound 292] |
| “+++” (≥50 = +++) | 264 (ILTGTPPGV; listed as Homo sapiens) [compound 264] |
| “+++” (≥50 = +++) | 290 (IASPVIAAV; listed as Homo sapiens) [compound 290] |
| “++++” (≥75% = ++++) | 296 (FILEPLYKI; listed as Homo sapiens) [compound 296] |
| “+++” (≥50 = +++) | 279 (NLAGENILNPL; listed as Homo sapiens) [compound 279] |
| “++++” (≥75% = ++++) | 269 (VLQNVAFSV; listed as Homo sapiens) [compound 269] |
| “+++” (≥50 = +++) | 277 (FLIDLNSTHGTFL; listed as Homo sapiens) [compound 277] |
| “++” (≥20% = ++) | 228 (IIAEYLSYV; listed as Homo sapiens) [compound 228] |
| “+++” (≥50 = +++) | 285 (SITAVTPLL; listed as Homo sapiens) [compound 285] |
| “+++” (≥50 = +++) | 267 (SLLETGSDLLL; listed as Homo sapiens) [compound 267] |
| “+++” (≥50 = +++) | 297 (ILQNGLETL; listed as Homo sapiens) [compound 297] |
| “+++” (≥50 = +++) | 250 (VLTNVGAAL; listed as Homo sapiens) [compound 250] |
| “+++” (≥50 = +++) | 284 (KLQEQIHRV; listed as Homo sapiens) [compound 284] |
| “++++” (≥75% = ++++) | 281 (TLQTVPLTTV; listed as Homo sapiens) [compound 281] |
| “++++” (≥75% = ++++) | 270 (VVVDSDSLAFV; listed as Homo sapiens) [compound 270] |
| “+++” (≥50 = +++) | 306 (AQVALVNEV; listed as Homo sapiens) [compound 306] |
| “+++” (≥50 = +++) | 299 (RLLEEEGVSL; listed as Homo sapiens) [compound 299] |
| “++++” (≥75% = ++++) | 274 (KLLNLISKL; listed as Homo sapiens) [compound 274] |
| “+++” (≥50 = +++) | 252 (YLGDLIMAL; listed as Homo sapiens) [compound 252] |
| “++” (≥20% = ++) | 226 (GVIDPVPEV; listed as Homo sapiens) [compound 226] |
| “++++” (≥75% = ++++) | 275 (KLMDLEDCAL; listed as Homo sapiens) [compound 275] |
| “++” (≥20% = ++) | 273 (AILLPQPPK; listed as Homo sapiens) [compound 273] |
| “+++” (≥50 = +++) | 300 (IVLERNPEL; listed as Homo sapiens) [compound 300] |
| “+++” (≥50 = +++) | 237 (YLDRLIPQA; listed as Homo sapiens) [compound 237] |

— patent publication US10702592B2, “Peptides and combination of peptides for use in immunotherapy against NHL and other cancers” (Immatics Biotechnologies GmbH, priority 2016, dated 2020)
